Experimental data as given in publication PMC9440762.

Target: P72509
Test: SEC; C-PC dialysed overnight against 8 M urea and 30 mM β-mercaptoethanol, then loaded on Superdex 200 Increase 5/150 in urea-free 75 mM phosphate buffer pH 7.9; partial reassociation during the run

B1: C-phycocyanin αβ monomer (heterodimer of the α and β subunits) from Arthrospira platensis (protein)
chain 1: not shown
chain 2: MFDAFTKVVSQADTRGEMLSTAQIDALSQMVAESNKRLDAVNRITSNASTIVSNAARSLFAEQPQLIAPGGNAYTSRRMAACLRDMEIILRYVTYAVFAGDASVLEDRCLNGLRETYLALGTPGSSVAVGVGKMKEAALAIVNDPAGITPGDCSALASEIASYFDRACAAVS
For B1, the “yield of the state with the initial hydrodynamic characteristics after renaturation from 8 M urea” value was 9.6%.
